Data taken from patent US20210206877.

Molecular target: certain anti-BACE1 antibodies (tested in the FRET short substrate assay)

B1: BACE1 ECD (as used in the enzyme activity assay) (protein)
chain: TQHGIRLPLRSGLGGAPLGLRLPRETDEEPEEPGRRGSFVEMVDNLRGKSGQGYYVEMTVGSPPQTLNILVDTGSSNFAVGAAPHPFLHRYYQRQLSSTYRDLRKGVYVPYTQGKWEGELGTDLVSIPHGPNVTVRANIAAITESDKFFINGSNWEGILGLAYAEIARPDDSLEPFFDSLVKQTHVPNLFSLQLCGAGFPLNQSEVLASVGGSMIIGGIDHSLYTGSLWYTPIRREWYYEVIIVRVEINGQDLKMDCKEYNYDKSIVDSGTTNLRLPKKVFEAAVKSIKAASSTEKFPDGFWLGEQLVCWQAGTTPWNIFPVISLYLMGEVTNQSFRITILPQQYLRPVEDVATSQDDCYKFAISQSSTGTVMGAVIMEGFYVVFDRARKRIGFAVSACHVHDEFRTAAVEGPFVTLDMEDCGYNIPQTDESTLMT
Modulation of BACE1 activity (cleavage of FRET short substrate Mca-SEVNLDAEFRK(Dnp)RR-NH2): both enzyme inhibition (positive percentages), and enzyme activation (negative values) were observed
